Measured values as given in patent US20180036364A1, “METHODS OF TREATING CANCER WITH A PSMA LIGAND-TUBULYSIN COMPOUND” (priority 2015, published 2018).

Tests used:
Assay type in all cases: in vivo, human
[1] = Phase 1 dose-escalation study: toxicity and safety
Experimental: (§1) This is a Phase 1, multicenter, open-label, non-randomized, dose-escalation oncology study in which EC1169 was dosed three times weekly (TIW), on Weeks 1 and 2 of a 3-week schedule or once weekly dosing (QW) on Weeks 1 and 2 of a 3-week schedule to assess toxicity, safety and preliminary efficacy results in patients with metastatic, castration-resistant prostate cancer (mCRPC) who have progressed on abiraterone and/or enzalutamide, and have been previously treated with a taxane except in cases of contraindication (e.g. poor performance status, age or personal choice). Patients were also dosed with 99mTc-EC0652 and underwent a SPECT/CT scan (or SPECT scan if no SPECT/CT is available) to evaluate EC0652 as an imaging agent to identify PSMA expression.
Prior dose escalation methodology for both schedules was based the continuous reassessment method (CRM), in which 1 patient is assigned to 1 dose level. Subsequent patients were to be enrolled upon the first observation of DLT, at which time enrollment to that dose level would be expanded to a maximum of 6 patients. An alternative dose escalation methodology for both schedules was based upon the standard “3+3” approach, in which a minimum of 3 patients is enrolled to a given dose level. Following the first observation of a DLT, the dose level is then expanded to a maximum of 6 patients.
Patients received an injection of 0.1 mg of PSMA Imaging Agent IIa labeled with 20-25 mCi of technetium-^99m (PSMA Imaging Agent Ma). Patients were subjected to SPECT/CT imaging of the region(s) known to contain target lesion(s) approximately 3-4 hours after injection of PSMA Imaging Agent Ma (^99mTc-EC0652). For sites where SPECT/CT imaging is not available, SPECT imaging alone was carried out.
(§2) II. PSMA-Tubulysin Compound I Administration: PSMA ligand-tubulysin compound I was administered at least 4 days after PSMA Imaging Agent Ma was administered, as an intravenous bolus injection, TIW on Weeks 1 and 2 (i.e., on Days 1, 3, 5, 8, 10, 12 of a 3-week cycle) or once weekly on Weeks 1 and 2 of a 3-week schedule.
DLTs will be based on events occurring in Part A during the first cycle of therapy and the adverse events must be drug related (i.e. definitely, probably or possibly): • ≧Grade 4 hematological toxicity. • Grade 3 neutropenia with fever>38.5° C. and/or infection requiring antibiotic or antifungal treatment. • Grade 3 neutropenia persisting for >5 days. • Grade 3 thrombocytopenia with clinically significant hemorrhage requiring platelet transfusion. • ≧Grade 3 non-hematological toxicity. Grade 3 laboratory abnormalities (e.g., K or Mg) that persist for less than 48 hours are not considered DLTs. • Grade 3 nausea, vomiting lasting more than 72 hours. • A delay of >2 weeks in the scheduled administration of Compound I due to drug-related toxicity.
• Schedule #1: TIW Dosing Schedule: Inability to administer at least 4 of the 6 scheduled doses of PSMA ligand-tubulysin compound I in a cycle due to drug-related toxicity. • Schedule #2: Once Weekly Dosing Schedule: Inability to administer both scheduled doses of PSMA ligand-tubulysin compound I in a cycle due to drug-related toxicity.
PSMA imaging conjugate IIIa and PSMA ligand-tubulysin compound I was administered via IV bolus injection.

[2] = system: metastatic, castration-resistant prostate cancer (mCRPC); assay: Phase 1 dose-escalation study: preliminary efficacy; conditions: 21 mCRPC patients
Excerpt: In one aspect, a clinical benefit of the patient to treatment with PSMA ligand-tubulysin compound I can be characterized utilizing Response Evaluation Criteria in Solid Tumors (RECIST) criteria. Illustratively, the criteria have been adapted from the original WHO Handbook (3), taking into account the measurement of the longest diameter for all target lesions: complete response, (CR)—the disappearance of all target lesions; partial response (PR)—at least a 30% decrease in the sum of the longest diameter of target lesions, taking as reference the baseline sum longest diameter; stable disease (SD)—neither sufficient shrinkage to qualify for partial response nor sufficient increase to qualify for progressive disease, taking as reference the smallest sum longest diameter since the treatment started; progressive disease (PD)—at least a 20% increase in the sum of the longest diameter of target lesions, taking as reference the smallest sum longest diameter recorded since the treatment started or the appearance of one or more new lesions. In another aspect overall disease response rate (ORR) is a clinical benefit and is calculated as the percent of patients who achieve a best response of CR or PR. Overall disease control rate (DCR) can be another clinical benefit and is calculated as the percent of patients who achieve a best response of CR, PR, or SD. […]

[3] = Phase 1 dose-escalation study: pharmacokinetics; conditions: mCRPC patients, IV bolus
Experimental: as §1, §2

[4] = 21 mCRPC patients, both schedules

CCCC(=O)OCN(C(=O)[C@@H](NC(=O)[C@H]1CCCCN1C)C(C)CC)[C@H](C[C@@H](OC(C)=O)c1nc(C(=O)N[C@@H](Cc2ccc(O)cc2)C[C@H](C)C(=O)NNC(=O)OCCSSC[C@H](NC(=O)[C@H](CC(=O)O)NC(=O)[C@H](CC(=O)O)NC(=O)Cc2ccc(CNC(=O)NCCCC[C@H](NC(=O)N[C@@H](CCC(=O)O)C(=O)O)C(=O)O)cc2)C(=O)O)cs1)C(C)C (some centres unmarked) [EC1169]
DR Grade 3-4 toxicity or serious adverse events [1, 4]: no | on-study deaths [1, 4]: no | occurrences of dose limiting toxicity ([1]; 21 mCRPC patients, both schedules, cycle 1): no | patients with drug-related (DR) adverse events (AE's) ([1]; 21 patients evaluated for cycle 1 toxicity, both schedules, IV bolus): 9 of 21 | drug-related adverse events occurring in >1 patient ([1]; Schedule #1 (TIW, Weeks 1 and 2 of 3-week cycle), 5 pts): No DRAE occurred in >1 Schedule #1 patient | drug-related adverse events reported in ≧2 patients ([1]; Schedule #2 (once weekly, Weeks 1 and 2 of 3-week cycle), 16 pts): Vomiting and fatigue were the only DRAE's | tolerability ([1]; mCRPC patients): well tolerated | patients with a 50% decrease in PSA [2]: No patient | patients with stable disease lasting more than 4 cycles [2]: 3 patients | AUC [3]: Dose proportionate increases | Cmax [3]: Dose proportionate increases
